These results are taken from US20070167369A1 (published 2007).

This assay concerns the target HUVECs. Nature of the assay: cell binding (Scatchard, Abs. 490 nm).

In general, Kd refers to the concentration at which binding is half-saturated.

B1: Regenin (other)
chain: MGTVMDVLKGDNRFSMLVAAIQSAGLTETLNREGVYTVFAPTNEAFRALPPRERSRLLGDAKELANILKYHIGDEILVSGGIGALVRLKSLQGDKLEVSLKNNVVSVNKEPVAEPDIMATNGVVHVITNVLMGTVMDVLKGDNRFSMLVAAIQSAGLTETLNREGVYTVFAPTNEAFRALPPRERSRLLGDAKELANILKYHIGDEILVSGGIGALVRLKSLQGDKLEVSLKNNVVSVNKEPVAEPDIMATNGVVHVITNVLMGTVMDVLKGDNRFSMLVAAIQSAGLTETLNREGVYTVFAPTNEAFRALPPRERSRLLGDAKELANILKYHIGDEILVSGGIGALVRLKSLQGDKLEVSLKNNVVSVNKEPVAEPDIMATNGVVHVITNVLMGTVMDVLKGDNRFSMLVAAIQSAGLTETLNREGVYTVFAPTNEAFRALPPRERSRLLGDAKELANILKYHIGDEILVSGGIGALVRLKSLQGDKLEVSLKNNVVSVNKEPVAEPDIMATNGVVHVITNVL
Take B1: the equilibrium dissociation constant (Kd) came out at 1 µM.
